Laboratory results as given in US12630600B2 (MEDIMMUNE LIMITED, priority 2022, dated 2026).
Starred links: 1 amine or outer side, 2 acyl side, 3 side chain; linkers in the order of their positions; H or OH if unused. Non-standard residues stand in square brackets, D forms with d. Groups on a side chain read outwards from the residue. No end group written: not given here. *: point of attachment. C20 diacid = O=C(O)CCCCCCCCCCCCCCCCCCC(=O)*; C18 diacid = O=C(O)CCCCCCCCCCCCCCCCC(=O)*; γGlu = O=C(O)[C@H](CCC(=O)[*:2])N[*:1]; αMeF = C[C@](N)(Cc1ccccc1)C(=O)O; (PEG)2 = polyethylene glycol 2; PEG4 = NCCOCCOCCOCCOCCC(=O)O; AEEA = NCCOCCOCC(=O)O; Aib = CC(C)(N)C(=O)O

B1: Peptide 271 (peptide)
peptide: H[Aib]HGS[αMeF]TSDVSK[αMeF]LDSRAAK([γGlu-C18 diacid])D[αMeF]VQ[Aib]IANT-NH2
modifications: N-terminus assumed
SMILES: CC[C@H](C)[C@H](NC(=O)C(C)(C)NC(=O)[C@H](CCC(N)=O)NC(=O)[C@@H](NC(=O)[C@](C)(Cc1ccccc1)NC(=O)[C@H](CC(=O)O)NC(=O)[C@H](CCCCNC(=O)CC[C@H](NC(=O)CCCCCCCCCCCCCCCCC(=O)O)C(=O)O)NC(=O)[C@H](C)NC(=O)[C@H](C)NC(=O)[C@H](CCCNC(=N)N)NC(=O)[C@H](CO)NC(=O)[C@H](CC(=O)O)NC(=O)[C@H](CC(C)C)NC(=O)[C@](C)(Cc1ccccc1)NC(=O)[C@H](CCCCN)NC(=O)[C@H](CO)NC(=O)[C@@H](NC(=O)[C@H](CC(=O)O)NC(=O)[C@H](CO)NC(=O)[C@@H](NC(=O)[C@](C)(Cc1ccccc1)NC(=O)[C@H](CO)NC(=O)CNC(=O)[C@H](Cc1c[nH]cn1)NC(=O)C(C)(C)NC(=O)[C@@H](N)Cc1c[nH]cn1)[C@@H](C)O)C(C)C)C(C)C)C(=O)N[C@@H](C)C(=O)N[C@@H](CC(N)=O)C(=O)N[C@H](C(N)=O)[C@@H](C)O
B2: Peptide 268 (peptide)
peptide: H[Aib]HGS[αMeF]TSDVSK[αMeF]LDSRAAK([AEEA-γGlu-C20 diacid])D[αMeF]VQ[Aib]IANT-NH2
modifications: N-terminus assumed
SMILES: CC[C@H](C)[C@H](NC(=O)C(C)(C)NC(=O)[C@H](CCC(N)=O)NC(=O)[C@@H](NC(=O)[C@](C)(Cc1ccccc1)NC(=O)[C@H](CC(=O)O)NC(=O)[C@H](CCCCNC(=O)COCCOCCNC(=O)CC[C@H](NC(=O)CCCCCCCCCCCCCCCCCCC(=O)O)C(=O)O)NC(=O)[C@H](C)NC(=O)[C@H](C)NC(=O)[C@H](CCCNC(=N)N)NC(=O)[C@H](CO)NC(=O)[C@H](CC(=O)O)NC(=O)[C@H](CC(C)C)NC(=O)[C@](C)(Cc1ccccc1)NC(=O)[C@H](CCCCN)NC(=O)[C@H](CO)NC(=O)[C@@H](NC(=O)[C@H](CC(=O)O)NC(=O)[C@H](CO)NC(=O)[C@@H](NC(=O)[C@](C)(Cc1ccccc1)NC(=O)[C@H](CO)NC(=O)CNC(=O)[C@H](Cc1c[nH]cn1)NC(=O)C(C)(C)NC(=O)[C@@H](N)Cc1c[nH]cn1)[C@@H](C)O)C(C)C)C(C)C)C(=O)N[C@@H](C)C(=O)N[C@@H](CC(N)=O)C(=O)N[C@H](C(N)=O)[C@@H](C)O
B3: Peptide 269 (peptide)
peptide: H[Aib]HGS[αMeF]TSDVSK[αMeF]LDSRAAK([PEG4-γGlu-γGlu-C20 diacid])D[αMeF]VQ[Aib]IANT-NH2
modifications: N-terminus assumed
SMILES: CC[C@H](C)[C@H](NC(=O)C(C)(C)NC(=O)[C@H](CCC(N)=O)NC(=O)[C@@H](NC(=O)[C@](C)(Cc1ccccc1)NC(=O)[C@H](CC(=O)O)NC(=O)[C@H](CCCCNC(=O)CCOCCOCCOCCOCCNC(=O)CC[C@H](NC(=O)CC[C@H](NC(=O)CCCCCCCCCCCCCCCCCCC(=O)O)C(=O)O)C(=O)O)NC(=O)[C@H](C)NC(=O)[C@H](C)NC(=O)[C@H](CCCNC(=N)N)NC(=O)[C@H](CO)NC(=O)[C@H](CC(=O)O)NC(=O)[C@H](CC(C)C)NC(=O)[C@](C)(Cc1ccccc1)NC(=O)[C@H](CCCCN)NC(=O)[C@H](CO)NC(=O)[C@@H](NC(=O)[C@H](CC(=O)O)NC(=O)[C@H](CO)NC(=O)[C@@H](NC(=O)[C@](C)(Cc1ccccc1)NC(=O)[C@H](CO)NC(=O)CNC(=O)[C@H](Cc1c[nH]cn1)NC(=O)C(C)(C)NC(=O)[C@@H](N)Cc1c[nH]cn1)[C@@H](C)O)C(C)C)C(C)C)C(=O)N[C@@H](C)C(=O)N[C@@H](CC(N)=O)C(=O)N[C@H](C(N)=O)[C@@H](C)O
B4: Peptide 246 (peptide)
peptide: H[Aib]HGS[αMeF]TSDVSK[αMeF]LDSRAAK([AEEA-AEEA-γGlu-γGlu-C20 diacid])D[αMeF]VESIANT-NH2
modifications: N-terminus assumed
SMILES: CC[C@H](C)[C@H](NC(=O)[C@H](CO)NC(=O)[C@H](CCC(=O)O)NC(=O)[C@@H](NC(=O)[C@](C)(Cc1ccccc1)NC(=O)[C@H](CC(=O)O)NC(=O)[C@H](CCCCNC(=O)COCCOCCNC(=O)COCCOCCNC(=O)CC[C@H](NC(=O)CC[C@H](NC(=O)CCCCCCCCCCCCCCCCCCC(=O)O)C(=O)O)C(=O)O)NC(=O)[C@H](C)NC(=O)[C@H](C)NC(=O)[C@H](CCCNC(=N)N)NC(=O)[C@H](CO)NC(=O)[C@H](CC(=O)O)NC(=O)[C@H](CC(C)C)NC(=O)[C@](C)(Cc1ccccc1)NC(=O)[C@H](CCCCN)NC(=O)[C@H](CO)NC(=O)[C@@H](NC(=O)[C@H](CC(=O)O)NC(=O)[C@H](CO)NC(=O)[C@@H](NC(=O)[C@](C)(Cc1ccccc1)NC(=O)[C@H](CO)NC(=O)CNC(=O)[C@H](Cc1c[nH]cn1)NC(=O)C(C)(C)NC(=O)[C@@H](N)Cc1c[nH]cn1)[C@@H](C)O)C(C)C)C(C)C)C(=O)N[C@@H](C)C(=O)N[C@@H](CC(N)=O)C(=O)N[C@H](C(N)=O)[C@@H](C)O
B5: Peptide 261 (peptide)
peptide: H[Aib]HGS[αMeF]TSDVSK[αMeF]LDSRAAK([PEG4-γGlu-C18 diacid])D[αMeF]VQ[Aib]IANT-NH2
modifications: N-terminus assumed
SMILES: CC[C@H](C)[C@H](NC(=O)C(C)(C)NC(=O)[C@H](CCC(N)=O)NC(=O)[C@@H](NC(=O)[C@](C)(Cc1ccccc1)NC(=O)[C@H](CC(=O)O)NC(=O)[C@H](CCCCNC(=O)CCOCCOCCOCCOCCNC(=O)CC[C@H](NC(=O)CCCCCCCCCCCCCCCCC(=O)O)C(=O)O)NC(=O)[C@H](C)NC(=O)[C@H](C)NC(=O)[C@H](CCCNC(=N)N)NC(=O)[C@H](CO)NC(=O)[C@H](CC(=O)O)NC(=O)[C@H](CC(C)C)NC(=O)[C@](C)(Cc1ccccc1)NC(=O)[C@H](CCCCN)NC(=O)[C@H](CO)NC(=O)[C@@H](NC(=O)[C@H](CC(=O)O)NC(=O)[C@H](CO)NC(=O)[C@@H](NC(=O)[C@](C)(Cc1ccccc1)NC(=O)[C@H](CO)NC(=O)CNC(=O)[C@H](Cc1c[nH]cn1)NC(=O)C(C)(C)NC(=O)[C@@H](N)Cc1c[nH]cn1)[C@@H](C)O)C(C)C)C(C)C)C(=O)N[C@@H](C)C(=O)N[C@@H](CC(N)=O)C(=O)N[C@H](C(N)=O)[C@@H](C)O

The binders below were run against human glucagon receptor (human, UniProt P47871) (assay: cell-based or functional assay).

Binder	hGluc-R EC50 (pM)
H[Aib]HGS[αMeF]TSDVSK[αMeF]LDSRAAK([PEG4-γGlu-γGlu-C18 diacid])D[αMeF]VQ[Aib]IANT-NH2 [Peptide 263]	64.6
B1	28
B2	29.3
H[Aib]HGS[αMeF]TSDVSK[αMeF]LDSR[Aib]AK([AEEA-AEEA-γGlu-C18 diacid])DFVESIANT-NH2 [Peptide 251]	248
H[Aib]HGS[αMeF]TSDVSK[αMeF]LDSRAAK([AEEA-γGlu-AEEA-C18 diacid])D[αMeF]VQ[Aib]IANT-NH2 [Peptide 259]	34.8
H[Aib]HGS[αMeF]TSDVSK[αMeF]LDSRAAK([(PEG)2-(PEG)2-γGlu-γGlu-C20 diacid])D[αMeF]VQ[Aib]IANT-NH2 [Peptide 264]	297
H[Aib]HGS[αMeF]TSDVSK[αMeF]LDSRAAK([AEEA-γGlu-AEEA-γGlu-C20 diacid])D[αMeF]VQ[Aib]IANT-NH2 [Peptide 266]	293
H[Aib]HGS[αMeF]TSDVSK[αMeF]LDSRAAK([PEG4-γGlu-C20 diacid])D[αMeF]VQ[Aib]IANT-NH2 [Peptide 267]	128
H[Aib]HGS[αMeF]TSDVSK[αMeF]LDSRAAK([AEEA-γGlu-AEEA-C20 diacid])D[αMeF]VQ[Aib]IANT-NH2 [Peptide 265]	131
H[Aib]HGS[αMeF]TSDVSK[αMeF]LDSQAAK([AEEA-AEEA-γGlu-γGlu-C20 diacid])D[αMeF]VQ[Aib]IANT-NH2 [Peptide 256]	1310
B3	271
H[Aib]HGS[αMeF]TSDVSK[αMeF]LDSRAAK([γGlu-γGlu-C18 diacid])D[αMeF]VQ[Aib]IANT-NH2 [Peptide 270]	31.3
H[Aib]HGS[αMeF]TSDVSK[αMeF]LDSR[Aib]AK([AEEA-γGlu-C18 diacid])DFVESIANT-NH2 [Peptide 253]	53.1
B4	557
H[Aib]HGS[αMeF]TSDVSK[αMeF]LDSRAAK([(PEG)2-(PEG)2-γGlu-γGlu-C18 diacid])D[αMeF]VQ[Aib]IANT-NH2 [Peptide 258]	93.1
B5	29.4
H[Aib]HGS[αMeF]TSDVSK[αMeF]LDSRAAK([AEEA-γGlu-AEEA-γGlu-C18 diacid])D[αMeF]VQ[Aib]IANT-NH2 [Peptide 260]	76.9
H[Aib]HGS[αMeF]TSDVSK[αMeF]LDSR[Aib]AK([γGlu-C18 diacid])DFVESIANT-NH2 [Peptide 254]	125
H[Aib]HGS[αMeF]TSDVSK[αMeF]LDSRAAK([AEEA-γGlu-C18 diacid])D[αMeF]VQ[Aib]IANT-NH2 [Peptide 262]	11.7

The binders below were run against human GLP-1 receptor (human, UniProt P43220) (assay: cell-based or functional assay).

Binder	hGLP-1R EC50 (pM)
H[Aib]HGS[αMeF]TSDVSK[αMeF]LDSRAAK([PEG4-γGlu-γGlu-C18 diacid])D[αMeF]VQ[Aib]IANT-NH2 [Peptide 263]	25.4
B1	54.6
B2	39.5
H[Aib]HGS[αMeF]TSDVSK[αMeF]LDSR[Aib]AK([AEEA-AEEA-γGlu-C18 diacid])DFVESIANT-NH2 [Peptide 251]	79.8
H[Aib]HGS[αMeF]TSDVSK[αMeF]LDSRAAK([AEEA-γGlu-AEEA-C18 diacid])D[αMeF]VQ[Aib]IANT-NH2 [Peptide 259]	19.1
H[Aib]HGS[αMeF]TSDVSK[αMeF]LDSRAAK([(PEG)2-(PEG)2-γGlu-γGlu-C20 diacid])D[αMeF]VQ[Aib]IANT-NH2 [Peptide 264]	69.5
H[Aib]HGS[αMeF]TSDVSK[αMeF]LDSRAAK([AEEA-γGlu-AEEA-γGlu-C20 diacid])D[αMeF]VQ[Aib]IANT-NH2 [Peptide 266]	66.5
H[Aib]HGS[αMeF]TSDVSK[αMeF]LDSRAAK([PEG4-γGlu-C20 diacid])D[αMeF]VQ[Aib]IANT-NH2 [Peptide 267]	65.6
H[Aib]HGS[αMeF]TSDVSK[αMeF]LDSRAAK([AEEA-γGlu-AEEA-C20 diacid])D[αMeF]VQ[Aib]IANT-NH2 [Peptide 265]	71.2
H[Aib]HGS[αMeF]TSDVSK[αMeF]LDSQAAK([AEEA-AEEA-γGlu-γGlu-C20 diacid])D[αMeF]VQ[Aib]IANT-NH2 [Peptide 256]	346
B3	52
H[Aib]HGS[αMeF]TSDVSK[αMeF]LDSRAAK([γGlu-γGlu-C18 diacid])D[αMeF]VQ[Aib]IANT-NH2 [Peptide 270]	24.4
H[Aib]HGS[αMeF]TSDVSK[αMeF]LDSR[Aib]AK([AEEA-γGlu-C18 diacid])DFVESIANT-NH2 [Peptide 253]	75.5
B4	320
H[Aib]HGS[αMeF]TSDVSK[αMeF]LDSRAAK([(PEG)2-(PEG)2-γGlu-γGlu-C18 diacid])D[αMeF]VQ[Aib]IANT-NH2 [Peptide 258]	34
B5	16.2
H[Aib]HGS[αMeF]TSDVSK[αMeF]LDSRAAK([AEEA-γGlu-AEEA-γGlu-C18 diacid])D[αMeF]VQ[Aib]IANT-NH2 [Peptide 260]	33.1
H[Aib]HGS[αMeF]TSDVSK[αMeF]LDSR[Aib]AK([γGlu-C18 diacid])DFVESIANT-NH2 [Peptide 254]	102
H[Aib]HGS[αMeF]TSDVSK[αMeF]LDSRAAK([AEEA-γGlu-C18 diacid])D[αMeF]VQ[Aib]IANT-NH2 [Peptide 262]	13
